From US20040091945A1, “Peptides and methods of screening immunogenic peptide vaccines against Alzheimer's Disease” (priority 2002, published 2004)

Experiments:
recombinant HLA A0201 = recombinant HLA A0201 (Homo sapiens, UniProt P04439, D140Y/D185E/D98H/E176V/E277Q/G131W/G231S/I119V/I121R/I166T/I218V/L300P/L318F/N151K/N90K/P208A/P217A/Q86G/Q94H/R138H/R169H/T345S); test: Competition with radiolabelled control peptide for binding to recombinant HLA A0201; conditions: initial screening, 1 uM peptide, 1 nM rHLA A0201 (FIG. 1)
Description: FIG. 1: FIG. 1: Binding of radiolabelled peptide to 1 nM rHLA A0201 in absence or presence of 1 uM Abeta 1-42 or homologue-derived peptides (numbered 1-10; see Table 4). Binding is shown relative to measured binding without competition (maximal binding). The control peptide (ctrl): […] (SEQ ID NO. 1).
The binding (or lack thereof) of HLA-A2.01 epitopes derived from the Abeta homologue LV/EE (modifications at positions 17 and 18) was tested in an in vitro system to validate the computer predictions. Comparisons were made to predicted epitopes from the wild-type human Abeta 1-42 sequence. Recombinant HLA A0201 heavy chains were produced in E. coli and purified from inclusion bodies according to a standard procedure described elsewhere (Ostergaard Pederson, L. et al. 2001). Briefly, HLA 0201 heavy chains (1 nM were incubated for 4 hr. at room temperature with 1 nM iodinated control binding peptide ([…]-SEQ ID No. 1; this peptide has a score of 607.884 when submitted to the ILA Peptide Binding Prediction program at BIMAS), 1000 nM human β2M and graded doses (indicated in figures) of unlabelled peptide of interest (derived from Abeta or its homologue). Receptor bound and free peptide were separated by G25 spun column chromatography (Buus, S. et al. 1995) and counted in a gamma counter (Cobra). The peptides used in this study are listed in Table 4: […]

[1] = target: T1, recombinant HLA A0201 (heavy chain produced in E. coli, with human beta2-microglobulin) (human); test: competition with iodinated [..] for recombinant HLA A0201; 1 uM unlabelled peptide
T1 construct: also called rHLA A0201; HLA-A2.01

Molecule | ability to compete away the binding of the control radiolabeled peptide to recombinant HLA-A201 molecules (recombinant HLA A0201) | binding result [1]
AEFRHDSGY | did not bind well | 
FRHDSGYEV | did not bind well | 
GLMVGGVVI | able to compete | 
HHQKEEFFA | did not bind well | 
IIGLMVGGV | able to compete | 
KEEFFAEDV | did not bind well | 
KLVFFAEDV | able to compete | 
LMVGGVVIA | able to compete | 
YEVHHQKEE | did not bind well | 
YEVHHQKLV | did not bind well | 
IIGLMVGGV [Peptide 6, IIGLMVGGV, derived from Abeta 1-42] |  | binds
KLVFFAEDV [Peptide 2, KLVFFAEDV, derived from Abeta 1-42] |  | binds
GLMVGGVVI [Peptide 1, GLMVGGVVI, derived from Abeta 1-42] |  | binds
LMVGGVVIA (6) [Peptide 10, LMVGGVVIA, derived from Abeta 1-42] |  | binds
